Earlier results in PMC3977038.

Biological target: FcεRIα (Homo sapiens) (UniProt P12319)
Sequence (P12319 26-257): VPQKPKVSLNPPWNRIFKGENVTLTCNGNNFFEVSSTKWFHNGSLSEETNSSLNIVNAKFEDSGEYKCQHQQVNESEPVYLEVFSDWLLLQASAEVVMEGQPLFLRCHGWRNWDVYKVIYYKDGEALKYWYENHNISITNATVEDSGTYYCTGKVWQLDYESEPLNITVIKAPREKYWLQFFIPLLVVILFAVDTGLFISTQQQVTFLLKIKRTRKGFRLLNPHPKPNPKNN

Chain of IgE-Fc Fc (P01854 105-426): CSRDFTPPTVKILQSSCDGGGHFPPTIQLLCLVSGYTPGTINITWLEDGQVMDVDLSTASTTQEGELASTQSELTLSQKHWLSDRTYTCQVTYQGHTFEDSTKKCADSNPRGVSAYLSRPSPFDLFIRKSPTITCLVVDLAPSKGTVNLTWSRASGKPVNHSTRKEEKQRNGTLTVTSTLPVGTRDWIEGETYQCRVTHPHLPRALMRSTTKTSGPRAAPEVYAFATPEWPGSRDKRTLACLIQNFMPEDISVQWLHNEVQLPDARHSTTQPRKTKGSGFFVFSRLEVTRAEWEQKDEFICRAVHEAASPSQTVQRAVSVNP

In the case of IgE-Fc Fc (from UniProt P01854), the Kd is listed as 0.1 nM.
